Among the data in PMC8763920, “Unprotected peptide macrocyclization and stapling via a fluorine-thiol displacement reaction” (Nature Communications, 2022) are helicity values, retold here.

*1 amine or outer side, *2 acyl side, *3 side chain or, on linkers, in order; H or OH if unused. Where a SMILES comes first, the peptide text is derived from it. Bridges are numbered along the chain shown (N, C = ends). [ ]: non-standard residue; d: D form. X3 = O=C(CSCCCCCCCCSCC(=O)[*:2])[*:1]; X2 = O=C(CSCCCCCCCSCC(=O)[*:2])[*:1]; X1 = O=C(CSCCCCCCSCC(=O)[*:2])[*:1]; X4 = O=C(CSCCCCCSCC(=O)[*:2])[*:1]; dDap = NC[C@@H](N)C(=O)O; Dap = NC[C@H](N)C(=O)O

A short description of this series: circular dichroism. As to conditions: water; pH ns; 25 °C; 70 uM.

For `CC(=O)N[C@@H](CCC(N)=O)C(=O)N[C@@H](CO)C(=O)N[C@@H](CCC(N)=O)C(=O)N[C@@H](CCC(N)=O)C(=O)N[C@H](C(=O)N[C@@H](Cc1ccccc1)C(=O)N[C@H]1CNC(=O)CSCCCCCCCCSCC(=O)NC[C@@H](C(=O)N[C@@H](CCC(N)=O)C(=O)N[C@@H](CC(N)=O)C(N)=O)NC(=O)[C@H](CC(C)C)NC(=O)[C@H](CC(C)C)NC(=O)[C@H](CCCNC(=N)N)NC(=O)[C@H](Cc2c[nH]c3ccccc23)NC(=O)[C@H](CC(C)C)NC(=O)[C@H](CC(N)=O)NC1=O)[C@@H](C)O`, the helicity was found to be 42%.
The figure for `CC(=O)N[C@@H](CCC(N)=O)C(=O)N[C@@H](CO)C(=O)N[C@@H](CCC(N)=O)C(=O)N[C@@H](CCC(N)=O)C(=O)N[C@H](C(=O)N[C@@H](Cc1ccccc1)C(=O)N[C@H]1CNC(=O)CSCCCCCCCCSCC(=O)NC[C@H](C(=O)N[C@@H](CCC(N)=O)C(=O)N[C@@H](CC(N)=O)C(N)=O)NC(=O)[C@H](CC(C)C)NC(=O)[C@H](CC(C)C)NC(=O)[C@H](CCCNC(=N)N)NC(=O)[C@H](Cc2c[nH]c3ccccc23)NC(=O)[C@H](CC(C)C)NC(=O)[C@H](CC(N)=O)NC1=O)[C@@H](C)O` is 37%; for `CC(=O)N[C@@H](CCC(N)=O)C(=O)N[C@@H](CO)C(=O)N[C@@H](CCC(N)=O)C(=O)N[C@@H](CCC(N)=O)C(=O)N[C@H](C(=O)N[C@@H](Cc1ccccc1)C(=O)N[C@H]1CNC(=O)CSCCCCCCCSCC(=O)NC[C@@H](C(=O)N[C@@H](CCC(N)=O)C(=O)N[C@@H](CC(N)=O)C(N)=O)NC(=O)[C@H](CC(C)C)NC(=O)[C@H](CC(C)C)NC(=O)[C@H](CCCNC(=N)N)NC(=O)[C@H](Cc2c[nH]c3ccccc23)NC(=O)[C@H](CC(C)C)NC(=O)[C@H](CC(N)=O)NC1=O)[C@@H](C)O` it is 36%; for `CC(=O)N[C@@H](CCC(N)=O)C(=O)N[C@@H](CO)C(=O)N[C@@H](CCC(N)=O)C(=O)N[C@@H](CCC(N)=O)C(=O)N[C@H](C(=O)N[C@@H](Cc1ccccc1)C(=O)N[C@H]1CNC(=O)CSCCCCCCCSCC(=O)NC[C@H](C(=O)N[C@@H](CCC(N)=O)C(=O)N[C@@H](CC(N)=O)C(N)=O)NC(=O)[C@H](CC(C)C)NC(=O)[C@H](CC(C)C)NC(=O)[C@H](CCCNC(=N)N)NC(=O)[C@H](Cc2c[nH]c3ccccc23)NC(=O)[C@H](CC(C)C)NC(=O)[C@H](CC(N)=O)NC1=O)[C@@H](C)O` it is 40%.
`CC(=O)N[C@@H](CCC(N)=O)C(=O)N[C@@H](CO)C(=O)N[C@@H](CCC(N)=O)C(=O)N[C@@H](CCC(N)=O)C(=O)N[C@H](C(=O)N[C@@H](Cc1ccccc1)C(=O)N[C@H]1CNC(=O)CSCc2ccc(cc2)-c2ccc(cc2)CSCC(=O)NC[C@@H](C(=O)N[C@@H](CCC(N)=O)C(=O)N[C@@H](CC(N)=O)C(N)=O)NC(=O)[C@H](CC(C)C)NC(=O)[C@H](CC(C)C)NC(=O)[C@H](CCCNC(=N)N)NC(=O)[C@H](Cc2c[nH]c3ccccc23)NC(=O)[C@H](CC(C)C)NC(=O)[C@H](CC(N)=O)NC1=O)[C@@H](C)O`: the helicity was found to be 16%.
`CC(=O)N[C@@H](CCC(N)=O)C(=O)N[C@@H](CO)C(=O)N[C@@H](CCC(N)=O)C(=O)N[C@@H](CCC(N)=O)C(=O)N[C@H](C(=O)N[C@@H](Cc1ccccc1)C(=O)N[C@H]1CNC(=O)CSCc2ccc(cc2)-c2ccc(cc2)CSCC(=O)NC[C@H](C(=O)N[C@@H](CCC(N)=O)C(=O)N[C@@H](CC(N)=O)C(N)=O)NC(=O)[C@H](CC(C)C)NC(=O)[C@H](CC(C)C)NC(=O)[C@H](CCCNC(=N)N)NC(=O)[C@H](Cc2c[nH]c3ccccc23)NC(=O)[C@H](CC(C)C)NC(=O)[C@H](CC(N)=O)NC1=O)[C@@H](C)O` showed a helicity of 18%.
For the compound `CC[C@H](C)[C@@H]1NC(=O)[C@@H](NC(=O)[C@H](CCC(=O)O)NC(=O)[C@@H]2CCCN2C(=O)[C@H](CC(N)=O)NC(=O)[C@H](CCC(=O)O)NC(C)=O)CNC(=O)CSCc2ccc(cc2)CSCC(=O)NC[C@@H](C(=O)N[C@@H](Cc2c[nH]cn2)C(=O)N[C@H](C(=O)N[C@@H](CCC(N)=O)C(=O)N[C@@H](CCCNC(=N)N)C(=O)N[C@H](C(=O)N[C@@H](CCSC)C(N)=O)C(C)C)C(C)C)NC(=O)[C@H](CC(=O)O)NC(=O)[C@H](CC(C)C)NC1=O`, the helicity was found to be 17%.
Turning to `CC[C@H](C)[C@@H]1NC(=O)[C@@H](NC(=O)[C@H](CCC(=O)O)NC(=O)[C@@H]2CCCN2C(=O)[C@H](CC(N)=O)NC(=O)[C@H](CCC(=O)O)NC(C)=O)CNC(=O)CSCc2cccc(c2)CSCC(=O)NC[C@@H](C(=O)N[C@@H](Cc2c[nH]cn2)C(=O)N[C@H](C(=O)N[C@@H](CCC(N)=O)C(=O)N[C@@H](CCCNC(=N)N)C(=O)N[C@H](C(=O)N[C@@H](CCSC)C(N)=O)C(C)C)C(C)C)NC(=O)[C@H](CC(=O)O)NC(=O)[C@H](CC(C)C)NC1=O`, the helicity is 46%.
As for `CC[C@H](C)[C@@H]1NC(=O)[C@@H](NC(=O)[C@H](CCC(=O)O)NC(=O)[C@@H]2CCCN2C(=O)[C@H](CC(N)=O)NC(=O)[C@H](CCC(=O)O)NC(C)=O)CNC(=O)CSCc2cccc(c2)CSCC(=O)NC[C@H](C(=O)N[C@@H](Cc2c[nH]cn2)C(=O)N[C@H](C(=O)N[C@@H](CCC(N)=O)C(=O)N[C@@H](CCCNC(=N)N)C(=O)N[C@H](C(=O)N[C@@H](CCSC)C(N)=O)C(C)C)C(C)C)NC(=O)[C@H](CC(=O)O)NC(=O)[C@H](CC(C)C)NC1=O`, the helicity was 44%.
`CC[C@H](C)[C@@H]1NC(=O)[C@H](NC(=O)[C@H](CCC(=O)O)NC(=O)[C@@H]2CCCN2C(=O)[C@H](CC(N)=O)NC(=O)[C@H](CCC(=O)O)NC(C)=O)CNC(=O)CSCc2ccc(cc2)CSCC(=O)NC[C@H](C(=O)N[C@@H](Cc2c[nH]cn2)C(=O)N[C@H](C(=O)N[C@@H](CCC(N)=O)C(=O)N[C@@H](CCCNC(=N)N)C(=O)N[C@H](C(=O)N[C@@H](CCSC)C(N)=O)C(C)C)C(C)C)NC(=O)[C@H](CC(=O)O)NC(=O)[C@H](CC(C)C)NC1=O` had a helicity of 19%.
As to `CC[C@H](C)[C@@H]1NC(=O)[C@H](NC(=O)[C@H](CCC(=O)O)NC(=O)[C@@H]2CCCN2C(=O)[C@H](CC(N)=O)NC(=O)[C@H](CCC(=O)O)NC(C)=O)CNC(=O)CSCc2cccc(c2)CSCC(=O)NC[C@@H](C(=O)N[C@@H](Cc2c[nH]cn2)C(=O)N[C@H](C(=O)N[C@@H](CCC(N)=O)C(=O)N[C@@H](CCCNC(=N)N)C(=O)N[C@H](C(=O)N[C@@H](CCSC)C(N)=O)C(C)C)C(C)C)NC(=O)[C@H](CC(=O)O)NC(=O)[C@H](CC(C)C)NC1=O`, the helicity was 8%.
The compound `CC[C@H](C)[C@@H]1NC(=O)[C@H](NC(=O)[C@H](CCC(=O)O)NC(=O)[C@@H]2CCCN2C(=O)[C@H](CC(N)=O)NC(=O)[C@H](CCC(=O)O)NC(C)=O)CNC(=O)CSCc2cccc(c2)CSCC(=O)NC[C@H](C(=O)N[C@@H](Cc2c[nH]cn2)C(=O)N[C@H](C(=O)N[C@@H](CCC(N)=O)C(=O)N[C@@H](CCCNC(=N)N)C(=O)N[C@H](C(=O)N[C@@H](CCSC)C(N)=O)C(C)C)C(C)C)NC(=O)[C@H](CC(=O)O)NC(=O)[C@H](CC(C)C)NC1=O` gave a helicity of 13%.
Take `CC[C@H](C)[C@@H]1NC(=O)[C@@H](NC(=O)[C@H](CCC(=O)O)NC(=O)[C@@H]2CCCN2C(=O)[C@H](CC(N)=O)NC(=O)[C@H](CCC(=O)O)NC(C)=O)CNC(=O)CSCCCCCCSCC(=O)NC[C@@H](C(=O)N[C@@H](Cc2c[nH]cn2)C(=O)N[C@H](C(=O)N[C@@H](CCC(N)=O)C(=O)N[C@@H](CCCNC(=N)N)C(=O)N[C@H](C(=O)N[C@@H](CCSC)C(N)=O)C(C)C)C(C)C)NC(=O)[C@H](CC(=O)O)NC(=O)[C@H](CC(C)C)NC1=O` (Ac-ENPE[Dap]ILD[Dap]HVQRVM-NH2; linker 5-9 via X1): the helicity stood at 29%.
The compound `CC[C@H](C)[C@@H]1NC(=O)[C@@H](NC(=O)[C@H](CCC(=O)O)NC(=O)[C@@H]2CCCN2C(=O)[C@H](CC(N)=O)NC(=O)[C@H](CCC(=O)O)NC(C)=O)CNC(=O)CSCCCCCCCSCC(=O)NC[C@@H](C(=O)N[C@@H](Cc2c[nH]cn2)C(=O)N[C@H](C(=O)N[C@@H](CCC(N)=O)C(=O)N[C@@H](CCCNC(=N)N)C(=O)N[C@H](C(=O)N[C@@H](CCSC)C(N)=O)C(C)C)C(C)C)NC(=O)[C@H](CC(=O)O)NC(=O)[C@H](CC(C)C)NC1=O` (Ac-ENPE[Dap]ILD[Dap]HVQRVM-NH2; linker 5-9 via X2) returned a helicity of 18%.
As to `CC[C@H](C)[C@@H]1NC(=O)[C@@H](NC(=O)[C@H](CCC(=O)O)NC(=O)[C@@H]2CCCN2C(=O)[C@H](CC(N)=O)NC(=O)[C@H](CCC(=O)O)NC(C)=O)CNC(=O)CSCCCCCCCCSCC(=O)NC[C@@H](C(=O)N[C@@H](Cc2c[nH]cn2)C(=O)N[C@H](C(=O)N[C@@H](CCC(N)=O)C(=O)N[C@@H](CCCNC(=N)N)C(=O)N[C@H](C(=O)N[C@@H](CCSC)C(N)=O)C(C)C)C(C)C)NC(=O)[C@H](CC(=O)O)NC(=O)[C@H](CC(C)C)NC1=O` (Ac-ENPE[Dap]ILD[Dap]HVQRVM-NH2; linker 5-9 via X3), the helicity stood at 25%.
Regarding `CC[C@H](C)[C@@H]1NC(=O)[C@@H](NC(=O)[C@H](CCC(=O)O)NC(=O)[C@@H]2CCCN2C(=O)[C@H](CC(N)=O)NC(=O)[C@H](CCC(=O)O)NC(C)=O)CNC(=O)CSCCCCCSCC(=O)NC[C@@H](C(=O)N[C@@H](Cc2c[nH]cn2)C(=O)N[C@H](C(=O)N[C@@H](CCC(N)=O)C(=O)N[C@@H](CCCNC(=N)N)C(=O)N[C@H](C(=O)N[C@@H](CCSC)C(N)=O)C(C)C)C(C)C)NC(=O)[C@H](CC(=O)O)NC(=O)[C@H](CC(C)C)NC1=O` (Ac-ENPE[Dap]ILD[Dap]HVQRVM-NH2; linker 5-9 via X4), the helicity was determined as 24%.
The compound `CC[C@H](C)[C@@H]1NC(=O)[C@@H](NC(=O)[C@H](CCC(=O)O)NC(=O)[C@@H]2CCCN2C(=O)[C@H](CC(N)=O)NC(=O)[C@H](CCC(=O)O)NC(C)=O)CNC(=O)CSCCCCCCCSCC(=O)NC[C@H](C(=O)N[C@@H](Cc2c[nH]cn2)C(=O)N[C@H](C(=O)N[C@@H](CCC(N)=O)C(=O)N[C@@H](CCCNC(=N)N)C(=O)N[C@H](C(=O)N[C@@H](CCSC)C(N)=O)C(C)C)C(C)C)NC(=O)[C@H](CC(=O)O)NC(=O)[C@H](CC(C)C)NC1=O` (Ac-ENPE[Dap]ILD[dDap]HVQRVM-NH2; linker 5-9 via X2) returned a helicity of 25%.
On to `CC[C@H](C)[C@@H]1NC(=O)[C@@H](NC(=O)[C@H](CCC(=O)O)NC(=O)[C@@H]2CCCN2C(=O)[C@H](CC(N)=O)NC(=O)[C@H](CCC(=O)O)NC(C)=O)CNC(=O)CSCCCCCCCCSCC(=O)NC[C@H](C(=O)N[C@@H](Cc2c[nH]cn2)C(=O)N[C@H](C(=O)N[C@@H](CCC(N)=O)C(=O)N[C@@H](CCCNC(=N)N)C(=O)N[C@H](C(=O)N[C@@H](CCSC)C(N)=O)C(C)C)C(C)C)NC(=O)[C@H](CC(=O)O)NC(=O)[C@H](CC(C)C)NC1=O` (Ac-ENPE[Dap]ILD[dDap]HVQRVM-NH2; linker 5-9 via X3), for which the helicity came to 14%.
